Results taken from the Immune Epitope Database (IEDB).

Legend:
HLA-B*15:03 = experiment: IEDB peptide-MHC binding, purified MHC/competitive/radioactivity; filed as Kd, often an IC50 or EC50 that approximates it; ≥ and ≤ were set here for values at or beyond the usual limits of such assays
HLA-B*07:02 [1] = experiment: IEDB peptide-MHC binding, purified MHC/competitive/fluorescence; ≥ and ≤ were set here for values at or beyond the usual limits of such assays
HLA-A*30:01 = experiment: IEDB peptide-MHC binding, purified MHC/competitive/radioactivity; filed as Kd, often an IC50 or EC50 that approximates it; ≥ and ≤ were set here for values at or beyond the usual limits of such assays; conditions: source organism: Vaccinia virus WR
HLA-A*32:01 = experiment: as above; conditions: source organism: Vaccinia virus WR
HLA-B*08:01 = experiment: as above; conditions: source organism: Vaccinia virus WR
HLA-B*15:01 [2] = experiment: as above; conditions: source organism: Vaccinia virus WR
HLA-B*58:01 = experiment: as above
HLA-A*02:01 [3] = experiment: IEDB peptide-MHC binding, purified MHC/competitive/fluorescence; ≥ and ≤ were set here for values at or beyond the usual limits of such assays
HLA-A*11:01 = experiment: as above
HLA-A*24:02 = experiment: as above
HLA-B*07:02 [4] = experiment: IEDB peptide-MHC binding, purified MHC/competitive/radioactivity; filed as Kd, often an IC50 or EC50 that approximates it; ≥ and ≤ were set here for values at or beyond the usual limits of such assays
HLA-B*35:01 = experiment: as above
HLA-B*51:01 = experiment: as above
HLA-B*53:01 = experiment: as above
HLA-B*54:01 = experiment: as above
HLA-B*15:01 [5] = experiment: IEDB peptide-MHC binding, purified MHC/competitive/fluorescence; ≥ and ≤ were set here for values at or beyond the usual limits of such assays
HLA-A*24:03 = experiment: IEDB peptide-MHC binding, purified MHC/competitive/fluorescence; filed as Kd, often an IC50 or EC50 that approximates it; ≥ and ≤ were set here for values at or beyond the usual limits of such assays; conditions: source organism: Influenza A virus (A/Kayano/57(H2N2))
HLA-A*68:02 [6] = experiment: as above
HLA-A*02:01 [7] = experiment: IEDB peptide-MHC binding, purified MHC/competitive/radioactivity; filed as Kd, often an IC50 or EC50 that approximates it; ≥ and ≤ were set here for values at or beyond the usual limits of such assays; conditions: source organism: Human immunodeficiency virus type 1 BH10
HLA-A*02:02 = experiment: as above; conditions: source organism: Human immunodeficiency virus type 1 BH10
HLA-A*02:03 = experiment: as above; conditions: source organism: Human immunodeficiency virus type 1 BH10
HLA-A*02:06 = experiment: as above; conditions: source organism: Human immunodeficiency virus type 1 BH10
HLA-A*68:02 [8] = experiment: as above; conditions: source organism: Human immunodeficiency virus type 1 BH10
HLA-A*02:01 [9] = experiment: IEDB peptide-MHC binding, purified MHC/direct/fluorescence; filed as Kd, often an IC50 or EC50 that approximates it; ≥ and ≤ were set here for values at or beyond the usual limits of such assays; conditions: source organism: Marburg virus - Musoke, Kenya, 1980
HLA-A*02:12 = experiment: as above; conditions: source organism: Ravn virus - Ravn, Kenya, 1987
HLA-A*69:01 = experiment: as above; conditions: source organism: Marburg virus - Musoke, Kenya, 1980
HLA-A*03:01 = experiment: IEDB peptide-MHC binding, purified MHC/competitive/fluorescence; filed as Kd, often an IC50 or EC50 that approximates it; ≥ and ≤ were set here for values at or beyond the usual limits of such assays; conditions: source organism: Francisella tularensis subsp. holarctica OSU18
[10] = source organism: Vaccinia virus WR
[11] = source organism: Sudan ebolavirus
[12] = source organism: SARS coronavirus Tor2
[13] = source organism: Zaire ebolavirus
[14] = source organism: Vaccinia virus
[15] = source organism: Lymphocytic choriomeningitis virus (strain WE)

TKVMFVIRF was tested, and the Kd (HLA-B*15:03; [10]) was 0.0308 µM.
LRKRSRRQT was tested, and the IC50 (HLA-B*07:02 [1]; [11]) was 18.8 µM.
In the case of FFLQRLYFL, the Kd (HLA-A*30:01) is reported as 0.768 µM, the Kd (HLA-A*32:01) is reported as ≥ 38.1 µM and the Kd (HLA-B*08:01) is reported as 0.00679 µM. It also gave a Kd (HLA-B*15:01 [2]) of 1.21 µM and a Kd (HLA-B*15:03; [10]) of 0.805 µM.
RSVSGDLIL was tested, and the Kd (HLA-B*58:01; source organism: Dengue virus 1 Brazil/97-11/1997) was 0.00984 µM.
KKMTCGQPL was tested, and the Kd (HLA-B*15:03; [10]) was 0.00151 µM.
EQYKTESFF showed a Kd (HLA-B*15:01 [2]) of 0.00657 µM and a Kd (HLA-B*15:03; [10]) of 0.0018 µM.
With VEVEPGSSF the Kd (HLA-B*15:03; [10]) was 0.00166 µM.
ATSYLEYEI was tested, and the IC50 (HLA-A*02:01 [3]; [11]) was 4.96 µM, the IC50 (HLA-A*11:01; [11]) was ≥ 81.4 µM and the IC50 (HLA-A*24:02; [11]) was 5.08 µM.
Work on ISSTPLAENT yielded a Kd (HLA-B*58:01; source organism: Dengue virus 4 Dominica/814669/1981) of 0.951 µM.
FQQPQFQYL was tested, and the Kd (HLA-B*15:03; source organism: Vaccinia virus Copenhagen) was 0.0226 µM.
With CPAEIVDTV the Kd (HLA-B*07:02 [4]; [12]) was 0.893 µM, the Kd (HLA-B*35:01; [12]) was 0.196 µM and the Kd (HLA-B*51:01; [12]) was 0.00188 µM. The Kd (HLA-B*53:01; [12]) was 0.121 µM and the Kd (HLA-B*54:01; [12]) was 0.00999 µM.
For KPASRELSV, the Kd (HLA-B*07:02 [4]; [12]) was 0.0057 µM, the Kd (HLA-B*35:01; [12]) was 11.8 µM and the Kd (HLA-B*51:01; [12]) was 0.631 µM. The Kd (HLA-B*53:01; [12]) was 14.4 µM and the Kd (HLA-B*54:01; [12]) was 9.54 µM.
GQSPARTSS was tested, and the IC50 (HLA-B*15:01 [5]; [13]) was 26 µM.
With NYPVAKGSY the Kd (HLA-A*24:03) was ≥ 20 µM.
NPNCLEWLRA was tested, and the Kd (HLA-B*07:02 [4]; [10]) was 17.4 µM, the Kd (HLA-B*35:01; [10]) was 1.16 µM and the Kd (HLA-B*51:01; [10]) was ≥ 69.6 µM. The Kd (HLA-B*53:01; [10]) was 2.05 µM and the Kd (HLA-B*54:01; [10]) was 0.0202 µM.
EELRSLYNTI was tested, and the Kd (HLA-A*68:02 [6]; source organism: Human immunodeficiency virus 1) was ≥ 20 µM.
For AAEAMEVA, the IC50 (HLA-B*07:02 [1]; source organism: H1N1 subtype Influenza A/Oklahoma/7485/01) was ≥ 1000 µM.
PPLISILMI was tested, and the Kd (HLA-B*07:02 [4]; [10]) was 7.3 µM, the Kd (HLA-B*35:01; [10]) was 19.3 µM and the Kd (HLA-B*51:01; [10]) was 0.0912 µM. It also gave a Kd (HLA-B*53:01; [10]) of 0.818 µM and a Kd (HLA-B*54:01; [10]) of 8.78 µM.
In the case of FNVNGSQVY, the Kd (HLA-B*15:03; [10]) is reported as 0.264 µM.
In the case of LDAVIRANN, the IC50 (HLA-A*11:01; [10]) is reported as ≥ 169 µM.
TFLQSPPIR was tested, and the IC50 (HLA-A*11:01; [11]) was ≥ 119 µM and the IC50 (HLA-A*24:02; [11]) was 38.8 µM.
For IRGFPRCRY, the IC50 (HLA-A*24:02; [13]) was 66 µM and the IC50 (HLA-B*15:01 [5]; [13]) was ≥ 242 µM.
In the case of FMTNFSMVY, the Kd (HLA-B*15:03; [10]) is reported as 0.00226 µM.
In the case of ISSLGILVF, the Kd (HLA-B*15:03; [10]) is reported as 0.0817 µM.
In the case of LPRDKFRKS, the IC50 (HLA-B*07:02 [1]; [11]) is reported as 16.9 µM.
For RGPGRAFVTI, the Kd (HLA-A*02:01 [7]) was 4.6 µM, the Kd (HLA-A*02:02) was ≥ 70 µM and the Kd (HLA-A*02:03) was 12.2 µM. For the same sequence, the Kd (HLA-A*02:06) was 5.79 µM and the Kd (HLA-A*68:02 [8]) was ≥ 69.8 µM.
ILRSLETDL gave an IC50 (HLA-A*02:01 [3]; [14]) of 22 µM and an IC50 (HLA-B*15:01 [5]; [14]) of 58.9 µM.
For FPCSICLSGL, the Kd (HLA-B*07:02 [4]; [12]) was 0.0585 µM, the Kd (HLA-B*35:01; [12]) was 0.123 µM and the Kd (HLA-B*51:01; [12]) was 0.035 µM. For the same sequence, the Kd (HLA-B*53:01; [12]) was 0.3 µM and the Kd (HLA-B*54:01; [12]) was 0.0652 µM.
EDNPGFFRV was tested, and the Kd (HLA-A*68:02 [6]; source organism: Yersinia pestis CO92) was 0.296 µM.
For EPEKDIRELL, the Kd (HLA-B*07:02 [4]; [10]) was 15.5 µM, the Kd (HLA-B*35:01; [10]) was ≥ 35.5 µM and the Kd (HLA-B*51:01; [10]) was ≥ 51 µM. The Kd (HLA-B*53:01; [10]) was 0.226 µM and the Kd (HLA-B*54:01; [10]) was ≥ 24.2 µM.
With YLPEDSDIL the Kd (HLA-A*02:01 [9]) was 0.525 µM, the Kd (HLA-A*02:12) was 0.006 µM and the Kd (HLA-A*69:01) was ≥ 20 µM.
With SSVSPPNVL the Kd (HLA-B*15:03; [10]) was 0.0183 µM.
With KTYYHHTGY the Kd (HLA-A*03:01) was 0.0052 µM.
GPHRTIHHA showed an IC50 (HLA-B*07:02 [1]; [13]) of 5.75 µM.
In the case of FGIKCIKKG, the IC50 (HLA-A*11:01; [14]) is reported as ≥ 290 µM.
For MPEWVNFKF, the Kd (HLA-B*07:02 [4]; [15]) was 2.21 µM, the Kd (HLA-B*35:01; [15]) was 0.00871 µM and the Kd (HLA-B*51:01; [15]) was ≥ 20.4 µM. It also gave a Kd (HLA-B*53:01; [15]) of 0.02 µM and a Kd (HLA-B*54:01; [15]) of 1 µM.
